The series can be described thus: self-splicing fitness, log relative to wild type (ln ratio); higher = more splicing; Tetrahymena group I intron in knt gene, E. coli kanamycin selection, DiMSum; sequences stand for … in CUCUCU…GGAGGGAAAAGUUAUCAGGCAUGCACCUGGUAGCUAGUCUUUAAACCAAUAGAUUGCAUCGGUUUAAAAGGCAAGACCGUCAAAUUGCGGGAAAGGGGUCAACAGCCGUUCAGUACCAAGUCUCAGGGGAAACUUUGAGAUGGCCUUGCAAAGGGUAUGGUAAUAAGCUGACGGACAUGGUCCUAACCACGCAGCCAAGUCCUAAGUCAACAGAUCUUCUGUUGAUAUGGAUGCAGUUCACAGACUAAAUGUCGGUCGGGGAAGAUGUAUUCUUCUCAUAAGAUAUAGUCGGACCUCUCCUUAAUGGGAGCUAGCGGAUGAAGUGAUGCAACACUGGAGCCGCUGGGAACUAAUUUGUAUGCGAAAGUAUAUUGAUUAGUUUUGGAGUACUCGUGGUCG
The method, boiled down: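 The eight P1ex-region nucleotides of an intron in the knt kanamycin-resistance gene on pET-22b(+) were all randomised and the library put into E. coli BL21(DE3). Six replicate transformations were grown overnight at 37°C or 30°C on LB agar with or without 25 μg/mL kanamycin, together with 100 μg/mL carbenicillin, 50 μM IPTG and 0.2% rhamnose. Colonies were pooled and amplicon-sequenced on an Illumina HiSeq 2500. Fitness from DiMSum is the error-weighted combination of wild-type-normalised replicate fold changes, kanamycin over none.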

± gives the uncertainty stated by the source.

For ACCUAGCAAUAUUACGUGCC, the “self-splicing fitness (ln)” value is, setting by setting: (30 °C) -1.63 ± 0.12; (37 °C) -0.237 ± 0.14.
For the sequence GACGAGCAAUAUUACGCGCC, the “self-splicing fitness (ln)” value by setting is: (30 °C) -2.74 ± 0.19; (37 °C) -1.59 ± 0.25.
As for CUGAAGCAAUAUUACGGCCG, the “self-splicing fitness (ln)” value was -0.134 ± 0.2 (30 °C) and 0.451 ± 0.27 (37 °C).
Take AGGGAGCAAUAUUACGGUAG: where the note is “30 °C”, the “self-splicing fitness (ln)” value is -4 ± 0.33.
Take UAGAAGCAAUAUUACGUCCG: the “self-splicing fitness (ln)” value is 0.777 ± 0.14 (30 °C) and -0.199 ± 0.16 (37 °C).
As for UGGAAGCAAUAUUACGCAUU, the “self-splicing fitness (ln)” value (30 °C) is -2.63 ± 0.27.
Take UUCGAGCAAUAUUACGCCUU: the “self-splicing fitness (ln)” value reads like this: (30 °C) -3.09 ± 0.26; (37 °C) -1.64 ± 0.26.
Regarding CCGCAGCAAUAUUACGCCUC, the “self-splicing fitness (ln)” value (30 °C) is -2.79 ± 0.12 and the “self-splicing fitness (ln)” value (37 °C) was -2.04 ± 0.14.
As for GGAAAGCAAUAUUACGGGAA, the “self-splicing fitness (ln)” value (30 °C) is -2.5 ± 0.36 and the “self-splicing fitness (ln)” value (37 °C) was -2.92 ± 0.26.
On to AUAUAGCAAUAUUACGGGAC, for which the “self-splicing fitness (ln)” value was -2.51 ± 0.48 (30 °C) and -1.82 ± 0.48 (37 °C).
The corresponding values for GGUUAGCAAUAUUACGUACG are -0.392 ± 0.14 and 0.0535 ± 0.18.
Regarding ACACAGCAAUAUUACGCAGU, the “self-splicing fitness (ln)” value is, setting by setting: (30 °C) -3.84 ± 0.14; (37 °C) -2.73 ± 0.12.
As for CUCCAGCAAUAUUACGGAGG, the “self-splicing fitness (ln)” value was -3.04 ± 0.17 (30 °C) and -2.44 ± 0.13 (37 °C).
The corresponding values for ACCAAGCAAUAUUACGAUAG are -4.36 ± 0.23 and -2.7 ± 0.21.
For GAAUAGCAAUAUUACGAAAC, the “self-splicing fitness (ln)” value by setting is: (30 °C) -1.62 ± 0.24; (37 °C) -0.632 ± 0.17.
On to ACCAAGCAAUAUUACGCUGG, for which the “self-splicing fitness (ln)” value is, setting by setting: (30 °C) -2.75 ± 0.15; (37 °C) -2.72 ± 0.21.
With AUCUAGCAAUAUUACGAACG, the “self-splicing fitness (ln)” value reads like this: (30 °C) -0.816 ± 0.12; (37 °C) -0.644 ± 0.22.
The corresponding values for CGCAAGCAAUAUUACGCAAC are -3.19 ± 0.36 and -3.11 ± 0.37.
The corresponding values for GAGAAGCAAUAUUACGCAAG are -1.6 ± 0.2 and -0.212 ± 0.21.
For the sequence AUUCAGCAAUAUUACGAGGC, the “self-splicing fitness (ln)” value (30 °C) was -3.49 ± 0.19 and the “self-splicing fitness (ln)” value (37 °C) is -1.51 ± 0.19.
In the case of CGAUAGCAAUAUUACGCCUU, the “self-splicing fitness (ln)” value is, setting by setting: (30 °C) -2.23 ± 0.17; (37 °C) -2.24 ± 0.17.
Regarding CUCGAGCAAUAUUACGGGAG, where the note is “37 °C”, the “self-splicing fitness (ln)” value was -1.11 ± 0.22.
For AGAGAGCAAUAUUACGUAUG, the “self-splicing fitness (ln)” value by setting is: (30 °C) -4.21 ± 0.24; (37 °C) -3.33 ± 0.27.
The corresponding values for CCUCAGCAAUAUUACGUGCU are -3.84 ± 0.33 and -2.62 ± 0.39.
As for CAGCAGCAAUAUUACGAUAA, the “self-splicing fitness (ln)” value (30 °C) is -3.08 ± 0.14 and the “self-splicing fitness (ln)” value (37 °C) is -2.24 ± 0.13.
Consider CGCGAGCAAUAUUACGCUCU, for which the “self-splicing fitness (ln)” value (37 °C) is -0.833 ± 0.33.
With GUUAAGCAAUAUUACGACGU, the “self-splicing fitness (ln)” value (30 °C) is -0.121 ± 0.059 and the “self-splicing fitness (ln)” value (37 °C) came out at 0.426 ± 0.069.
On to GUCGAGCAAUAUUACGUGGC, for which the “self-splicing fitness (ln)” value runs as follows: (30 °C) -3.63 ± 0.2; (37 °C) -1.09 ± 0.17.
With GCCUAGCAAUAUUACGAGAC, the “self-splicing fitness (ln)” value runs as follows: (30 °C) -1.85 ± 0.16; (37 °C) 0.662 ± 0.12.
The corresponding values for ACCGAGCAAUAUUACGACGC are -0.285 ± 0.089 and -0.16 ± 0.11.
The corresponding values for CAGAAGCAAUAUUACGAGCU are -2.12 ± 0.18 and -1.77 ± 0.2.
For UACAAGCAAUAUUACGCCUU, the “self-splicing fitness (ln)” value runs as follows: (30 °C) -0.984 ± 0.091; (37 °C) -1.04 ± 0.092.
The corresponding values for CUCUAGCAAUAUUACGACGA are -2.13 ± 0.22 and -0.928 ± 0.16.
UUCAAGCAAUAUUACGCCGA: the “self-splicing fitness (ln)” value was -0.5 ± 0.18 (30 °C) and -0.423 ± 0.23 (37 °C).
Consider GGGGAGCAAUAUUACGCUGC, for which, for the setting “30 °C”, the “self-splicing fitness (ln)” value was -2.22 ± 0.45.
Take AUCUAGCAAUAUUACGAGCU: the “self-splicing fitness (ln)” value runs as follows: (30 °C) -2.29 ± 0.17; (37 °C) -0.565 ± 0.17.
As to CCUUAGCAAUAUUACGAACA, the “self-splicing fitness (ln)” value (37 °C) was -0.92 ± 0.29.
Turning to AUGAAGCAAUAUUACGCUCU, the “self-splicing fitness (ln)” value by setting is: (30 °C) -0.29 ± 0.15; (37 °C) 0.111 ± 0.18.
As to ACGCAGCAAUAUUACGACCA, the “self-splicing fitness (ln)” value reads like this: (30 °C) -1.49 ± 0.12; (37 °C) -0.691 ± 0.15.
For UAUUAGCAAUAUUACGAUAC, the “self-splicing fitness (ln)” value (37 °C) is -1.13 ± 0.24.

The values are drawn from the supplement of paper PMC7877785.
